B1: soluble form of human PC7 (amino acids 1-663) (protein)
chain: LAGTGGPDGQGTGGPSWAVHLESLEGDGEEETLEQQADALAQAAGLVNAGRIGELQGHYLFVQPAGHRPALEVEAIRQQVEAVLAGHEAVRWHSEQRLLRRAKRSVHFNDPKYPQQWHLNNRRSPGRDINVTGVWERNVTGRGVTVVVVDDGVEHTIQDIAPNYSPEGSYDLNSNDPDPMPHPDVENGNHHGTRCAGEIAAVPNNSFCAVGVAYGSRIAGIRVLDGPLTDSMEAVAFNKHYQINDIYSCSWGPDDDGKTVDGPHQLGKAALQHGVIAGRQGFGSIFVVASGNGGQHNDNCNYDGYANSIYTVTIGAVDEEGRMPFYAEECASMLAVTFSGGDKMLRSIVTTDWDLQKGTGCTEGHTGTSAAAPLAAGMIALMLQVRPCLTWRDVQHIIVFTATRYEDRRAEWVTNEAGFSHSHQHGFGLLNAWRLVNAAKIWTSVPYLASYVSPVLKENKAIPQSPRSLEVLWNVSRMDLEMSGLKTLEHVAVTVSITHPRRGSLELKLFCPSGMMSLIGAPRSMDSDPNGFNDWTFSTVRCWGERARGTYRLVIRDVGDESFQVGILRQWQLTLYGSVWSAVDIRDRQRLLESAMSGKYLHDDFALPCPPGLKIPEEDGYTITPN
B2: human PC5 (proprotein convertase subtilisin/kexin type 5), expressed from pSYN-PC5-003 (protein)
chain: RVYTNHWAVKIAGGFPEANRIASKYGFINIGQIGALKDYYHFYHSRTIKRSVISSRGTHSFISMEPKVEWIQQQVVKKRTKRDYDFSRAQSTYFNDPKWPSMWYMHCSDNTHPCQSDMNIEGAWKRGYTGKNIVVTILDDGIERTHPDLMQNYDALASCDVNGNDLDPMPRYDASNENKHGTRCAGEVAAAANNSHCTVGIAFNAKIGGVRMLDGDVTDMVEAKSVSFNPQHVHIYSASWGPDDDGKTVDGPAPLTRQAFENGVRMGRRGLGSVFVWASGNGGRSKDHCSCDGYTNSIYTISISSTAESGKKPWYLEECSSTLATTYSSGESYDKKIITTDLRQRCTDNHTGTSASAPMAAGIIALALEANPFLTWRDVQHVIVRTSRAGHLNANDWKTNAAGFKVSHLYGFGLMDAEAMVMEAEKWTTVPRQHVCVESTDRQIKTIRPNSAVRSIYKASGCSDNPNRHVNYLEHVVVRITITHPRRGDLAIYLTSPSGTRSQLLANRLFDHSMEGFKNWEFMTIHCWGERAAGDWVLEVYDTPSQLRNFKTPGKLKEWSLVLYGTSVQPYSPTNEFPKVERFRYSRVEDPTDDYGTEDYAGPCDPECSEVGCDGPGPDHCNDCLHYYYKLKNNTRICVSSCPPGHYHADKKRCRKCAPNCESCFGSHGDQCMSCKYGYFLNEETNSCVTHCPDGSYQDTKKNLCRKCSENCKTCTEFHNCTECRDGLSLQGSRCSVSCEDGRYFNGQDCQPCHRFCATCAGAGADGCINCTEGYFMEDGRCVQSCSISYYFDHSSENGYKSCKKCDISCLTCNGPGFKNCTSCPSGYLLDLGMCQMGAICKDATEESWAEGGFCMLVKKNNLCQRKVLQQLCCKTCTFQG
B3: soluble form of yeast Kex2 (amino acids 1-675) (protein)
chain: LVSSQQIPLKDHTSRQYFAVESNETLSRLEEMHPNWKYEHDVRGLPNHYVFSKELLKLGKRSSLEELQGDNNDHILSVHDLFPRNDLFKRLPVPAPPMDSSLLPVKEAEDKLSINDPLFERQWHLVNPSFPGSDINVLDLWYNNITGAGVVAAIVDDGLDYENEDLKDNFCAEGSWDFNDNTNLPKPRLSDDYHGTRCAGEIAAKKGNNFCGVGVGYNAKISGIRILSGDITTEDEAASLIYGLDVNDIYSCSWGPADDGRHLQGPSDLVKKALVKGVTEGRDSKGAIYVFASGNGGTRGDNCNYDGYTNSIYSITIGAIDHKDLHPPYSEGCSAVMAVTYSSGSGEYIHSSDINGRCSNSHGGTSAAAPLAAGVYTLLLEANPNLTWRDVQYLSILSAVGLEKNADGDWRDSAMGKKYSHRYGFGKIDAHKLIEMSKTWENVNAQTWFYLPTLYVSQSTNSTEETLESVITISEKSLQDANFKRIEHVTVTVDIDTEIRGTTTVDLISPAGIISNLGVVRPRDVSSEGFKDWTFMSVAHWGENGVGDWKIKVKTTENGHRIDFHSWRLKLFGESIDSSKTETFVFGNDKEEVEPAATESTVSQYSASSTSISISATSTSSISIGVETSAIPQTTTASTDPDSDPNTPKKLSSPRQ

Target: rFVIIIBDD-Fc-Fc (B-domain deleted Factor VIII-Fc fused to a second Fc through a (GGGGS)4 linker; expressed from pSYN-FVIII-041)
Sequence (chain, as listed by the source, stated change not applied): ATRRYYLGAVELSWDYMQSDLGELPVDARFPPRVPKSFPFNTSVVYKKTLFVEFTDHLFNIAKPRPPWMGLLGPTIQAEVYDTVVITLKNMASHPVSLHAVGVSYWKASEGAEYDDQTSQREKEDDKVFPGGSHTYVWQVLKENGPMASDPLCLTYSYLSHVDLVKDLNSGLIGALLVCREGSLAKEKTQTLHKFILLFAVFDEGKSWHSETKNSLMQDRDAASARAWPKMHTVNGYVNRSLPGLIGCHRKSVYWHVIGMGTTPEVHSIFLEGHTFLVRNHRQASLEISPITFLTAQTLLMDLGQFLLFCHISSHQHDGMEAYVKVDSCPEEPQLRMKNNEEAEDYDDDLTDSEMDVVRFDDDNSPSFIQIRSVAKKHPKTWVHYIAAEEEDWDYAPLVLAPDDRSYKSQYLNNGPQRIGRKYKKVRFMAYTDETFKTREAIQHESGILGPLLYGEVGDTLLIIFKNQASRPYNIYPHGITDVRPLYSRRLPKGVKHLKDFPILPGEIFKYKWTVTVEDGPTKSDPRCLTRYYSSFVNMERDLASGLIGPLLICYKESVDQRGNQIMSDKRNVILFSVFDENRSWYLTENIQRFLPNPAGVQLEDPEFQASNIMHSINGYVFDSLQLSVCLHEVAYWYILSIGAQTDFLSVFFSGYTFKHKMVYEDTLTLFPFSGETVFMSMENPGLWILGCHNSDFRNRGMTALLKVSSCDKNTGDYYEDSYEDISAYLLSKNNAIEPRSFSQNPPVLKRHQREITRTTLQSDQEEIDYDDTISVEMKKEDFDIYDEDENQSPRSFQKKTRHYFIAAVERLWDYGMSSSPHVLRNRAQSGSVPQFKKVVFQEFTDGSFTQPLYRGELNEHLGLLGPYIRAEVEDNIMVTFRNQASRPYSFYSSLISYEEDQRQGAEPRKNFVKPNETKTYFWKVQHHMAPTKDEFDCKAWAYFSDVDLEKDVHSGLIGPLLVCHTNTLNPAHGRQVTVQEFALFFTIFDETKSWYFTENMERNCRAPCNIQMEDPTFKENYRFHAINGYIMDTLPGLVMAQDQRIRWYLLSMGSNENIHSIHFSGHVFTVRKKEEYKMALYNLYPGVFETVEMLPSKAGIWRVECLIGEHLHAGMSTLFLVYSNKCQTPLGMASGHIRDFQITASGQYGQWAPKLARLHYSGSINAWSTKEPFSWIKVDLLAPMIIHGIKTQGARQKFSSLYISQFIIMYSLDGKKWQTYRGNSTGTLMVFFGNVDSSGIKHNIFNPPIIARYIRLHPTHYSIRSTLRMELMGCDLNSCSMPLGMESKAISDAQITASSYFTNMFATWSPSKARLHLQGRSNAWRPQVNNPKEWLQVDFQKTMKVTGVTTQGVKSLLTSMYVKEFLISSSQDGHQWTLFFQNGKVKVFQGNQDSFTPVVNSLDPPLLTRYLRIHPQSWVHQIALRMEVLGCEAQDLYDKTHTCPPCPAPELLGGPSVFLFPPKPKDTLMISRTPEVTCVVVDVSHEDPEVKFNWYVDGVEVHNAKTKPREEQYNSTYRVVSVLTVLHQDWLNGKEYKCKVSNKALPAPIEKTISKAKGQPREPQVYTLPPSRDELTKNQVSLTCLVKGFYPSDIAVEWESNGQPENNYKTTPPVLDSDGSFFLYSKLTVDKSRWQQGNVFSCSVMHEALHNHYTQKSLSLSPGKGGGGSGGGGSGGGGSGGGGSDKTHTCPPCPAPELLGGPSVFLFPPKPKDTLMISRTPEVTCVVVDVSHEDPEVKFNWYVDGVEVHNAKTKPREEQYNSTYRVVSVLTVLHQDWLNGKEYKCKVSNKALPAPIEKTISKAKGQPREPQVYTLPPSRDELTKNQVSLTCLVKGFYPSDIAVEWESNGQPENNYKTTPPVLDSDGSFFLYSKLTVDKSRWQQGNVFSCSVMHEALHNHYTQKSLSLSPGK

| Protein | nonprocessed FVIIIFc on SDS-PAGE (SYPRO Ruby and Coomassie staining) |
| --- | --- |
| B1 | Kex2, PC7, PACE, and PC5 decrease nonprocessed Factor VIII |
| B2 | Kex2, PC7, PACE, and PC5 decrease nonprocessed Factor VIII |
| B3 | Kex2, PC7, PACE, and PC5 decrease nonprocessed Factor VIII |
